Source: patent US20240124597A1 (Bristol-Myers Squibb, published 2024)
Where a chain is given by its changes, count along the chain named. Numbers in names are those of the source.

B1: Y12XX-hz14 (antibody, human IgG1, kappa, V domains shown)
VH: QVQLVQSGAEVKKPGSSVKVSCKASGYAFTSYWMHWVRQAPGQGLEWMGQINPTTGRSQYNEKFKTRVTITADKSTSTAYMELSSLRSEDTAVYYCARWGLQPFAYWGQGTLVTVSS
VL: DIQMTQSPSSLSASVGDRVTITCKASQDVSTAVAWYQQKPGKAPKLLIYSASYRYTGVPSRFSGSGSGTDFTFTISSLQPEDIATYYCQQHYSTPWTFGGGTKVEIKR
notes: Humanized, IgG1-P238K; supernatant sample
B2: Y12XX-hz32 (antibody, human IgG1, kappa, V domains shown)
VH: QVQLVQSGAEVKKPGSSVKVSCKASGYAFTSYWMHWVRQAPGQGLEWMGYINPTTGYSAYNQKFKDKATLTADKSTSTAYMELSSLRSEDTAVYYCARWDPRPFAYWGQGTLVTVSS
VL: EIVMTQSPATLSVSPGERATLSCKASQDVSTAVAWYQQKPGQAPRLLIYSASYRYTGIPARFSGSGSGTEFTLTISSLQSEDFAVYYCQQHYSTPWTFGGGTKVEIKR
notes: as for B1
B3: Y12XX-hz2 (antibody, human IgG1, kappa, V domains shown)
VH: B1 VH with A40R, Q50F, R57Y, Q59E, E62Q, T66D, Q102P
VL: B1 VL
notes: as for B1
B4: Y12XX-hz8 (antibody, human IgG1, kappa, V domains shown)
VH: B2 VH with P101A
VL: B1 VL
notes: as for B1
B5: Y12XX-hz10 (antibody, human IgG1, kappa, V domains shown)
VH: B1 VH with A40R, T54S, T55N
VL: B1 VL
notes: as for B1
B6: Y12XX-hz11 (antibody, human IgG1, kappa, V domains shown)
VH: B1 VH with A40R, M48I, T54S, T55N
VL: B1 VL
notes: as for B1
B7: Y12XX-hz5 (antibody, human IgG1, kappa, V domains shown)
VH: B2 VH with A40R
VL: B1 VL
notes: as for B1
B8: Y12XX-hz4 (antibody, human IgG1, kappa, V domains shown)
VH: B2 VH
VL: B1 VL
notes: as for B1
B9: Y12XX-hz12 (antibody, human IgG1, kappa, V domains shown)
VH: B1 VH with T54S, T55Q
VL: B1 VL
notes: as for B1
B10: Y12XX-hz26 (antibody, human IgG1, kappa, V domains shown)
VH: B1 VH with T54S, T55Q
VL: B1 VL with S10F, F73L, I83F
notes: as for B1
B11: Y12XX-hz3 (antibody, human IgG1, kappa, V domains shown)
VH: B1 VH with A40R, M48I, Q50F, R57Y, Q59E, E62Q, T66D, S84N, Q102P
VL: B1 VL
notes: as for B1
B12: Y12XX-hz31 (antibody, human IgG1, kappa, V domains shown)
VH: B1 VH with A40R, M48I, Q50F, R57Y, Q59E, E62Q, T66D, S84N, Q102P
VL: B2 VL
notes: as for B1
B13: Y12XX-hz24 (antibody, human IgG1, kappa, V domains shown)
VH: B1 VH with A40R, T54S, T55N
VL: B1 VL with S10F, F73L, I83F
notes: as for B1
B14: Y12XX-hz13 (antibody, human IgG1, kappa, V domains shown)
VH: B1 VH with T54S, T55N, G56A
VL: B1 VL
notes: as for B1
B15: Y12XX-hz30 (antibody, human IgG1, kappa, V domains shown)
VH: B1 VH with A40R, Q50F, R57Y, Q59E, E62Q, T66D, Q102P
VL: B2 VL
notes: as for B1
B16: Y12XX-hz36 (antibody, human IgG1, kappa, V domains shown)
VH: B2 VH with P101A
VL: B2 VL
notes: as for B1
B17: Y12XX-hz25 (antibody, human IgG1, kappa, V domains shown)
VH: B1 VH with A40R, M48I, T54S, T55N
VL: B1 VL with S10F, F73L, I83F
notes: as for B1
B18: Y12XX-hz17 (antibody, human IgG1, kappa, V domains shown)
VH: B1 VH with A40R, M48I, Q50F, R57Y, Q59E, E62Q, T66D, S84N, Q102P
VL: B1 VL with S10F, F73L, I83F
notes: as for B1
B19: Y12XX-hz15 (antibody, human IgG1, kappa, V domains shown)
VH: B1 VH with Q50F, R57Y, Q59E, E62Q, T66D, Q102P
VL: B1 VL with S10F, F73L, I83F
notes: as for B1
B20: Y12XX-hz33 (antibody, human IgG1, kappa, V domains shown)
VH: B2 VH with A40R
VL: B2 VL
notes: as for B1
B21: Y12XX-hz29 (antibody, human IgG1, kappa, V domains shown)
VH: B1 VH with Q50F, R57Y, Q59E, E62Q, T66D, Q102P
VL: B2 VL
notes: as for B1
B22: Y12XX-hz1 (antibody, human IgG1, kappa, V domains shown)
VH: B1 VH with Q50F, R57Y, Q59E, E62Q, T66D, Q102P
VL: B1 VL
notes: as for B1
B23: Y12XX-hz27 (antibody, human IgG1, kappa, V domains shown)
VH: B1 VH with T54S, T55N, G56A
VL: B1 VL with S10F, F73L, I83F
notes: as for B1
B24: Y12XX-hz9 (antibody, human IgG1, kappa, V domains shown)
VH: B1 VH with T54S, T55N
VL: B1 VL
notes: as for B1
B25: Y12XX-hz23 (antibody, human IgG1, kappa, V domains shown)
VH: B1 VH with T54S, T55N
VL: B1 VL with S10F, F73L, I83F
notes: as for B1

Target: T1, human-CD40-monomer protein (human, UniProt P25942 21-193, limits assumed)
T1 construct: Soluble monomer generated in house, used as SPR analyte; also called hCD40; hCD40-monomer
Experiment: SPR, Ab captured on protein A, hCD40 monomer 500 and 50 nM, 1:1 fit; supernatant
Description: Titer analysis was performed using Biolayer Interferometry (BLI) on an Octet RED instrument (Fortebio) by capturing antibodies from supernatant using protein A sensor tips and measuring capture response with respect to a standard curve obtained using a control antibody sample. SPR data were obtained by capturing antibodies on a protein A surface and testing the binding of 500 nM and 50 nM injections of human-CD40 analyte, using a BIAcore™ T200 instrument (GE Healthcare). The kinetic data for the two concentrations of hCD40-monomer were fit to a 1:1 Langmuir model, to yield estimates of the kinetic and affinity values for these interactions, and for comparison of the different molecules.

T1 sequence (P25942 21-193 limits assumed): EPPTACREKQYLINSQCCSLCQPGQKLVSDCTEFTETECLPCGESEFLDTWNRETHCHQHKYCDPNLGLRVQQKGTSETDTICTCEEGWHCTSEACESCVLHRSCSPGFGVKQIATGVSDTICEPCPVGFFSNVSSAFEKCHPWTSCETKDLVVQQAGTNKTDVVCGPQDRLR

| Binder | Kd [nM] | koff [s⁻¹] | kon [M⁻¹ s⁻¹] |
| --- | --- | --- | --- |
| B1 | 5 | 0.00083 | 170000 |
| B2 | 10 | 0.003 | 290000 |
| B3 | 4.1 | 7.1e-05 | 17000 |
| B4 | 210 | 0.15 | 720000 |
| B5 | 3.6 | 0.00073 | 200000 |
| B6 | 5 | 0.00088 | 180000 |
| B7 | 7.2 | 0.0025 | 350000 |
| B8 | 4.7 | 0.0022 | 460000 |
| B9 | 8.3 | 0.0014 | 170000 |
| B10 | 7.5 | 0.0012 | 160000 |
| B11 | 4.5 | 6.7e-05 | 15000 |
| B12 | 0.007 | 2.9e-07 | 41000 |
| B13 | 4.4 | 0.00082 | 190000 |
| B14 | 3.9 | 0.00083 | 210000 |
| B15 | 0.018 | 7.3e-07 | 41000 |
| B16 | 250 | 0.1 | 390000 |
| B17 | 3.4 | 0.00064 | 190000 |
| B18 | 210 | 0.077 | 370000 |
| B19 | 8 | 0.00013 | 16000 |
| B20 | 11 | 0.0033 | 290000 |
| B21 | 0.069 | 2.6e-06 | 37000 |
| B22 | 1.1 | 1.6e-05 | 15000 |
| B23 | 4.7 | 0.00088 | 190000 |
| B24 | 4.6 | 0.00089 | 200000 |
| B25 | 3.2 | 0.00064 | 200000 |
